Laboratory results: PMC3561363, “A Novel Retro-Inverso Peptide Inhibitor Reduces Amyloid Deposition, Oxidation and Inflammation and Stimulates Neurogenesis in the APPswe/PS1ΔE9 Mouse Model of Alzheimer’s Disease” (PLoS ONE, 2013)

Molecular target: T1, Aβ(1–42) (UniProt P05067 672-713)
T1 construct: also called Aβ42; β-amyloid (Aβ) peptide; source: bought: rPeptide (recombinant Aβ42, Ultrapure)
Experiment: SPR; Aβ42 fibrils immobilised by amine coupling on a COOH5 chip (~5,000 RU), Sensi Q; RI-OR2-TAT injected at 1, 3 and 6 µM in PBS with 0.005% Tween 20 for 5 min at 30 µl/min; empty reference surface subtracted; each concentration fitted separately, 1:1 Langmuir model; apparent
Conditions: both partners purified

B1: RI-OR2-TAT (Ac-rGffvlkGrrrrqrrkkrGy-NH2) (peptide)
peptide: RGFFVLKGRRRRQRRKKRGY
HELM: PEPTIDE1{[ac].[dR].G.[dF].[dF].[dV].[dL].[dK].G.[dR].[dR].[dR].[dR].[dQ].[dR].[dR].[dK].[dK].[dR].G.[dY].[am]}$$$$V2.0
SMILES: CC(=O)N[C@H](CCCNC(=N)N)C(=O)NCC(=O)N[C@H](Cc1ccccc1)C(=O)N[C@H](Cc1ccccc1)C(=O)N[C@@H](C(=O)N[C@H](CC(C)C)C(=O)N[C@H](CCCCN)C(=O)NCC(=O)N[C@H](CCCNC(=N)N)C(=O)N[C@H](CCCNC(=N)N)C(=O)N[C@H](CCCNC(=N)N)C(=O)N[C@H](CCCNC(=N)N)C(=O)N[C@H](CCC(N)=O)C(=O)N[C@H](CCCNC(=N)N)C(=O)N[C@H](CCCNC(=N)N)C(=O)N[C@H](CCCCN)C(=O)N[C@H](CCCCN)C(=O)N[C@H](CCCNC(=N)N)C(=O)NCC(=O)N[C@H](Cc1ccc(O)cc1)C(N)=O)C(C)C
notes: source: synthetic peptide, custom made by Cambridge Peptides (>95% purity)
Kd: 0.058 to 0.125 µM | koff: 0.00037 s⁻¹ | kon: 3680 M⁻¹ s⁻¹
